Assay [1] deals with Microtubules polymerized from bovine brain tubulin (bovine) (UniProt Q6B856). Put plainly: TIRF microscopy; dynamic microtubules grown from GMPCPP seeds with 9 µM tubulin and 5 µM 488-SSNA1 (7% labeled), imaged 60 min; SSNA1 intensity at the microtubule end region; 35°C.
The target is the same in assay [2]. Briefly: single-molecule TIRF microscopy (dwell times); 5 nM 647-SSNA1 (100% labeled) alone on surface-bound GMPCPP-stabilized microtubule seeds; 0-5 min after SSNA1 addition; 5 fps; 35°C.
The target is the same in assay [3]. Put plainly: single-molecule TIRF microscopy (dwell times); spiking: 5 nM 647-SSNA1 with 1 µM 488-SSNA1 on surface-bound GMPCPP-stabilized microtubule seeds; 5-10 min after SSNA1 addition; 5 fps; 35°C.
For assay [4] the target is unchanged. Put plainly: single-molecule TIRF microscopy (dwell times); spiking: 5 nM 647-SSNA1 with 1 µM 488-SSNA1 on surface-bound GMPCPP-stabilized microtubule seeds; 0-5 min after SSNA1 addition; 5 fps; 35°C.
For assay [5] the target is unchanged. Briefly: single-molecule TIRF microscopy (dwell times); 5 nM 647-SSNA1 (100% labeled) alone on surface-bound GMPCPP-stabilized microtubule seeds; 5-10 min after SSNA1 addition; 5 fps; 35°C.

For “Human 6His-SSNA1 (Sjögren's syndrome nuclear autoantigen-1) (from UniProt O43805 1-119) (natural protein)”, in assay [1], the SSNA1 fluorescence intensity at the microtubule end region, 3 min stood at 0.33 a.u. In addition, the mean single-molecule dwell time came out at 12 s in assay [2], 39 s in assay [3], 19 s in assay [4] and 10 s in assay [5]. The association rate (events µm^–1 nM^–1 s^–1) in assay [3] stood at 0.0024; in assay [4], 0.00096.

Source of the values: PMC8798045.
